B1: CPEB3 Ribozyme (parent)
chain: GGGGGCCACAGCAGAAGCGUUCACGUCGCGGCCCCUGUCAGAUUCUGGUGAAUCUGCGAAUUCUGCUGU

Variants of: B1
Test: self-cleavage, relative activity (ratio to wild type); higher = more cleavage; co-transcriptional

Variant	self-cleavage
C27U U61G	0.277
C29U U38A	0.2
C29U G41U	0.191
G30A U67C	0.959
C29A C66A	0.334
G28U G37A	0.206
C29G C54G	0.246
C29G C54U	0.545
C29U U46C	0.433
C29U U46G	0.571
G28U A51U	0.182
C29G C39G	0.267
C29G C39U	0.251
C29A C33U	0.594
C29A C33G	0.281
G28C C33G	0.166
C27U C35G	0.14
C29U U62A	0.15
G30A U61G	0.447
G30A U61C	0.39
C29G G58A	0.327

Variant	self-cleavage
G28A C34U	0.244
G28A C34G	0.139
C29U G30A	0.283
G30A U49A	0.89
G28C C54A	0.151
C29G U46C	0.473
G30A U62G	0.413
G30A U62A	0.445
C27U U64A	0.161
G30A G48A	0.951
G28A G30A	0.156
G28A G30U	0.155
G30A C34A	0.286
G30A C34G	0.278
C29A C45G	0.605
C29A C45A	0.635
C27U C34G	0.24
G30A G47U	0.939
G30A G47A	0.916
G28A G68A	0.294
C29A A51C	0.534

Variant	self-cleavage
G28U C33U	0.155
G28C G48C	0.135
C29G U38A	0.316
C27U C29U	0.189
G30A U55A	0.638
G28C G50U	0.143
G28C G50A	0.166
G28C G50C	0.168
G30A A51C	0.718
C29A G58C	0.685
C29A G58U	0.795
C29U C39G	0.163
G28U U44A	0.135
G28U U44C	0.181
G28C A60C	0.217
C29G G30U	0.219
G28U C54U	0.178
G28C G65U	0.16
G28U G31A	0.24
G30A U64A	0.634
G30A U64G	0.624

Variant	self-cleavage
C29U G48C	0.61
C29U G58C	0.398
C29G U43A	0.186
C29G U43C	0.428
C29A C32A	0.297
G30A U46G	0.888
G28U C34G	0.219
G28U C34U	0.204
C29A G68A	0.914
G28U G65U	0.2
G28U G65A	0.146
C29G C32U	0.313
C29U C33U	0.511
C29G U36C	0.286
C29U U43A	0.171
C29U U43G	0.168
G30A C63G	0.483
G30A C63U	0.839
C27U U36C	0.201
C29A U67G	0.79
G28C C35G	0.17

— the RNAGym collection of RNA variant scans (doi:10.7554/elife.80360)
